The source of these data is US20210032347A1 (JIANGSU HANSOH PHARMACEUTICAL GROUP, published 2021).

As usually defined, the EC50 is the concentration that produces a half-maximal response. Usually koff stands for a measure of how fast the partners let go of each other. A higher koff goes with fast dissociation. Broadly, the Kd is the equilibrium constant for the complex coming apart. What is called kon is the second-order rate constant of association. Higher therefore signals faster complex formation.

Assay [1] has as its target T1, Human B7-H4 with HisFlag tag (huB7-H4-his) (human, UniProt Q7Z7D3 25-258).
T1 construct: also called HuB7-H4 His protein; huB7-H4-HF
T1 sequence: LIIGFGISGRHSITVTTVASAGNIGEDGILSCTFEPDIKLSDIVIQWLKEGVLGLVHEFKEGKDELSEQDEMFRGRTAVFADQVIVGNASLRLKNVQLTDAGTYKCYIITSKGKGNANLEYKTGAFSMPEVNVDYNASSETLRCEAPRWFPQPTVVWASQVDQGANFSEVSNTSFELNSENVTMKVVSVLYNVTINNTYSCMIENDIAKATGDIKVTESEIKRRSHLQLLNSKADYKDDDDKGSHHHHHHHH
Put plainly: indirect ELISA, plate coated with HuB7-H4 His. As for the experimental part:
The plate was washed with PBST (PBS comprising 0.05% Tween-20, pH 7.4) four times, and then 150 μl/well of 3% bovine serum albumin (BSA) blocking solution diluted in PBST was added, and incubated at room temperature for 1 hour for blocking. After the blocking was finished, the blocking solution was discarded and the plate was washed 4 times with PBST buffer.
The antibodies to be tested were diluted with PBST comprising 3% BSA at a gradient of 10-fold dilution, starting from 1 μM with a total of 10 doses. The dilutions were added into the plate at 100 μl/well, and incubated at room temperature for 1 hour. After the incubation was finished, the plate was washed 4 times with PBST, 100 μl/well of HRP-labeled goat anti-human secondary antibody (Abeam, cat #ab97225) diluted in PBST comprising 3% BSA was added and incubated at room temperature for 1 hour. The plate was washed 4 times with PBST, 100 μl/well TMB chromogenic substrate (Cell Signaling Technology, cat #7004S) was added and incubated at room temperature in darkness for 1 minute, and 100 μl/well of Stop Solution (Cell Signaling Technology, cat #7002S) was added to terminate the reaction. The absorbance was read at 450 nm using a microplate reader (BioTek, model Synergy H1), and the data was analyzed.
For orientation: An ELISA detects its analyte on a solid surface through an enzyme-linked reagent.

Assay [2] addresses T1, Human B7-H4 with HisFlag tag …. Kind of assay: SPR Biacore T200, antibody coupled to CM5 chip, 50 nM huB7-H4-his in flow, 1:1 model. On the procedure:
a). 50 nM human huB7-H4-his protein (Sino Biological #10738-H08H) diluted by the same buffer was loaded at a flow rate of 10 μL/min, and the chip was regenerated with the regeneration reagent provided in the kit. Antigen-antibody binding kinetics were recorded for 3 minutes and dissociation kinetics were recorded for 10 minutes. The resulting data were analyzed by GE's BIAevaluation Software using 1:1 (Langmuir) binding model.
Background: Surface plasmon resonance follows binding to a sensor surface in real time, without labels.

The target is the same in assay [3]. Kind of assay: SPR Biacore T200, antibody coupled to CM5 chip, series of huB7-H4-his concentrations, 1:1 model. As for the experimental part:
b). A series of concentrations of human huB7-H4-his protein diluted by the same buffer were respectively loaded at the flow rate of 10 μL/min and the chip was regenerated with the regeneration reagent provided in the kit. Antigen-antibody binding kinetics were recorded for 3 minutes and dissociation kinetics were recorded for 10 minutes. The resulting data were analyzed by GE's BIAevaluation Software using 1:1 (Langmuir) binding model.

B1: chimeric antibody 2A10 (antibody, human IgG1, V domains shown)
VH: EVQLVESGGGFVKPGGSLKLSCAASGFTFSTFGMSWVRQTPDKRLEWVAGISPGGSYTYYPDTVKGRFTISRDNARNTLYLQMSSLRSEDSAMYYCTRGRSVWGTGTTVTVSS
VL: DILMTQSPSSMSVSLGDTVSITCHASQDISSNIGWLQQKPGKSFKGLIYHGTTLEDGIPSRFSGSGSGADYSLTISSLESEDFADYYCVQSAQFPWTFGGGTKLEIK
As for B1, the EC50 in assay [1] came out at 0.071 nM.

B2: murine mAb 2A10 (antibody, V domains shown)
VH: EVQLVESGGGFVKPGGSLKLSCAASGFTFSTFGMSWVRQTPDKRLEWVAGISPGGSYTYYPDTVKGRFTISRDNARNTLYLQMSSLRSEDSAMYYCTRGRSVWGTGTTVTVSS
VL: DILMTQSPSSMSVSLGDTVSITCHASQDISSNIGWLQQKPGKSFKGLIYHGTTLEDGIPSRFSGSGSGADYSLTISSLESEDFADYYCVQSAQFPWTFGGGTKLEIK
notes: Murine antibody from hybridoma
B2 displayed a koff in assay [2] of 0.000331 s⁻¹.

B3: murine mAb 2F4 (antibody, V domains shown)
VH: EVQLVESGGGLVKPGGSLKLSCAASGLTFSRYAMSWVRQTPEKRLEWVAGISSGGSYTYYSDTVKGRFTISRDNVRNTLYLQMSSLRSEDTAMYYCGREYGRDYWGQGTSVTVSS
VL: DILMTQSPSSMSVSLGDTVSITCHASQGINSNIGWLQQKPGKSFKGLIYHGTNLEDGVPSRFSGSGSGTDYSLTISSLESEDFADYYCVQYAQFPRTFGGGTTLEIK
notes: as for B2
B3 came in with a koff in assay [2] of 0.00166 s⁻¹.

B4: murine mAb 2G6 (antibody, V domains shown)
VH: EVQLVESGGGLVKPGGSLKLSCAASGFTFSRYGMSWVRQTPEKRLEWVAGINGGGSYTYYLDTVKGRFTISRDNSRNTLYLQMSSLRSEDTAMYYCVSQGSNYYFDYWGQGTTLTVSS
VL: DIRMTQSPSSMSVSLGDTVSITCHASQGISSNIGWLQQKPGKSFKALIYHGTNLEDGVPSRFSGSGSGADYSLTISSLESEDFADYYCVQYAQFPYTFGGGTKLEIK
notes: as for B2
In the case of B4, the koff in assay [2] came out at 8.91e-05 s⁻¹. This koff lies about 19-fold lower than the previous one.

B5: chimeric antibody 2F4 (antibody, human IgG1, V domains shown)
VH: EVQLVESGGGLVKPGGSLKLSCAASGLTFSRYAMSWVRQTPEKRLEWVAGISSGGSYTYYSDTVKGRFTISRDNVRNTLYLQMSSLRSEDTAMYYCGREYGRDYWGQGTSVTVSS
VL: DILMTQSPSSMSVSLGDTVSITCHASQGINSNIGWLQQKPGKSFKGLIYHGTNLEDGVPSRFSGSGSGTDYSLTISSLESEDFADYYCVQYAQFPRTFGGGTTLEIK
notes: also called ch-2F4
In assay [3], B5 yielded a Kd of 2.5 nM, a koff of 0.00259 s⁻¹ and a kon of 1.04e+06 M⁻¹ s⁻¹. The EC50 in assay [1] stood at 0.056 nM.

B6: murine mAb 1E4 (antibody, V domains shown)
VH: EVQLVESGGGLVKPGGSLKLSCAASGFTFSRYAMSWVRQTPEKRLEWVAGISSGGSYTYYPDTLKGRFTVSRDNARNTLYLQMSSLRSEDTAKYFCASQGSNHYFDYWGQGTTLTVSS
VL: DTLMTQSPSSMSVSLGDTVSITCHASQGIHNNIGWLQQKPGKSFKALIYHGTNLEDGVPSRFSGSGSGADYSLIISSLESEDFADYYCVQYAQFPYTFGGGTKLEIK
notes: as for B2
B6 gave a koff in assay [2] of 0.000293 s⁻¹.

B7: chimeric antibody 2G6 (antibody, human IgG1, V domains shown)
VH: EVQLVESGGGLVKPGGSLKLSCAASGFTFSRYGMSWVRQTPEKRLEWVAGINGGGSYTYYLDTVKGRFTISRDNSRNTLYLQMSSLRSEDTAMYYCVSQGSNYYFDYWGQGTTLTVSS
VL: DIRMTQSPSSMSVSLGDTVSITCHASQGISSNIGWLQQKPGKSFKALIYHGTNLEDGVPSRFSGSGSGADYSLTISSLESEDFADYYCVQYAQFPYTFGGGTKLEIK
With B7, in assay [1], the EC50 was found to be 0.081 nM.

B8: chimeric antibody 2F7 (antibody, human IgG1, V domains shown)
VH: EVQLVESGGGLVQPGGSLKLSCAASGFTFSNYYMSWVRQTPEKRLEWVAYVSSGGGSTYYSDSVKGRFTISRDNAKNTLYLQMSSLKPEDTAMYYCTRESYSQGNYFDYWGQGTTLTVSS
VL: DIVMTQSPATLSVTPGDRVSLSCRASQSISDYLHWYQQKSHESPRLLIKFASQSISGIPSRFSGSGSGSDFTLSINSVEPEDVGVYYCQNGHSFSLTFGAGTKLELK
notes: also called ch-2F7
In assay [3], B8 registered a Kd of 68.8 nM, a koff of 0.00304 s⁻¹ and a kon of 44200 M⁻¹ s⁻¹. In addition, the EC50 in assay [1] came to 0.17 nM.

B9: murine mAb 2F7 (antibody, V domains shown)
VH: EVQLVESGGGLVQPGGSLKLSCAASGFTFSNYYMSWVRQTPEKRLEWVAYVSSGGGSTYYSDSVKGRFTISRDNAKNTLYLQMSSLKPEDTAMYYCTRESYSQGNYFDYWGQGTTLTVSS
VL: DIVMTQSPATLSVTPGDRVSLSCRASQSISDYLHWYQQKSHESPRLLIKFASQSISGIPSRFSGSGSGSDFTLSINSVEPEDVGVYYCQNGHSFSLTFGAGTKLELK
notes: as for B2
In assay [2], B9 came in with a koff of 0.00253 s⁻¹.

B10: chimeric antibody M1 (antibody, V domains shown)
VH: EIQLQQSGPELVMPGASVKVSCTASGYPFTTYNMYWVKQSHGKSLEWIAYIDPYNGGTSYNQKFKGKATLTVDKSSSTAYMHLNSLTSEDSAVYYCARSGFYDGYYAWYFDVWGAGTTVTVSS
VL: DVVMTQTPLSLPVSLGDQASISCRSSQSLVHSGGNTYLHWYLQKPGQSPKLLIYKVSNRFSGVPDRFSGSGSGTDFTLKISRVEAEDLGVYFCSQSTHVPLTFGAGTKLELK
notes: also called ch-M1
Turning to B10, in assay [3], the affinity, expressed as Kd, was 0.14 nM; the dissociation rate constant (koff) was 9.41e-05 s⁻¹; the kon is 674000 M⁻¹ s⁻¹. Further, the EC50 in assay [1] was determined as 0.063 nM.

B11: M1 (listed as murine antibody) (antibody, V domains shown)
VH: EIQLQQSGPELVMPGASVKVSCTASGYPFTTYNMYWVKQSHGKSLEWIAYIDPYNGGTSYNQKFKGKATLTVDKSSSTAYMHLNSLTSEDSAVYYCARSGFYDGYYAWYFDVWGAGTTVTVSS
VL: DVVMTQTPLSLPVSLGDQASISCRSSQSLVHSGGNTYLHWYLQKPGQSPKLLIYKVSNRFSGVPDRFSGSGSGTDFTLKISRVEAEDLGVYFCSQSTHVPLTFGAGTKLELK
As to B11, in assay [2], the koff came to 3.98e-05 s⁻¹.

B12: chimeric antibody 2F8 (antibody, human IgG1, V domains shown)
VH: QVQLQQPGSVLVRPGASVKLSCKASGYTFTNSWMNWAKLRPGQGLEWIGGIYPNSGNIEYNEKFKGKATLTVDTSSSTAYMDLTSLTSEDSAVYYCARDSRFSYWGQGTLVTVSA
VL: DIVMTQSHKFMSTSVGDRVSITCKASQDVRTAVAWYQQKPGQSPKLLISSTSYRYTGVPDRFTGSGSGTDFTFIISSVQAEDLAVYYCQQHYSTPLTFGAGTKLELK
notes: also called ch-2F8
Turning to B12, in assay [3], the Kd was 0.119 nM, the off-rate (koff) was 0.000114 s⁻¹ and the on-rate (kon) was determined as 1.13e+06 M⁻¹ s⁻¹. The EC50 in assay [1] was 0.067 nM.

B13: murine mAb 2E4 (antibody, V domains shown)
VH: QVQLQQPGSVLVRPGTSVKLSCKASGYTFTSSWMNWVKQRPGQGLEWIGGIYPNRGTTEYNEKFKGKATLTVDTSSSTAFMDLNRLTSEDSAVYYCARDSRFADWGQGTLVTVSA
VL: DIMLTQSHKFMSTSVGDRVSITCKASQDVSAAVAWYQQKPGQSPKLLISSASYRYTGVPDRFTGSGSGTDFTFTISSVQAEDLAVYYCQQHYNTPLTFGAGTKLELK
notes: as for B2
The molecule B13 yielded a koff in assay [2] of 5.97e-05 s⁻¹.

B14: murine mAb 2F8 (antibody, V domains shown)
VH: QVQLQQPGSVLVRPGASVKLSCKASGYTFTNSWMNWAKLRPGQGLEWIGGIYPNSGNIEYNEKFKGKATLTVDTSSSTAYMDLTSLTSEDSAVYYCARDSRFSYWGQGTLVTVSA
VL: DIVMTQSHKFMSTSVGDRVSITCKASQDVRTAVAWYQQKPGQSPKLLISSTSYRYTGVPDRFTGSGSGTDFTFIISSVQAEDLAVYYCQQHYSTPLTFGAGTKLELK
notes: as for B2
Molecule B14 registered a koff in assay [2] of 6.87e-05 s⁻¹.

B15: chimeric antibody 1C9 (antibody, human IgG1, V domains shown)
VH: QVQLQQPGSVLVRPGASVKLSCKASGDTFTTYWMNWVKQRPGQGLEWIGGIYLNSGSSEYNEKFKGKATLSVDTSSSTAYMDLSSLTSEDSAVYYCARDSRFSYWGQGTLVTVSA
VL: DIVMTQSHKFLSTSVGDRVSITCKASQDVSTAVAWYQQKPGQSPELLISSASYRYTGVPDRFTGSGSGTDFTFTISSVQAEDLAVYYCQQHYNTPLTFGAGTQLELK
Take B15: the EC50 in assay [1] came out at 0.068 nM.
